{"source": "paper PMC8892010", "proteins": {"B1": {"name": "BK channel γ3 subunit (LRRC55): tunicamycin (protein)", "parent chain": "MGDTWAQLPWPGPPHPAMLLISLLLAAGLMHSDAGTSCPVLCTCRNQVVDCSSQRLFSVPPDLPMDTRNLSLAHNRITAVPPGYLTCYMELQVLDLHNNSLMELPRGLFLHAKRLAHLDLSYNNFSHVPADMFQEAHGLVHIDLSHNPWLRRVHPQAFQGLMQLRDLDLSYGGLAFLSLEALEGLPGLVTLQIGGNPWVCGCTMEPLLKWLRNRIQRCTADSQLAECRGPPEVEGAPLFSLTEESFKACHLTLTLDDYLFIAFVGFVVSIASVATNFLLGITANCCHRWSKASEEEEI"}, "B2": {"name": "BK channel γ2 subunit (LRRC52): N148Q (protein)", "parent chain": "MSLASGPGPGWLLFSFGMGLVSGSKCPNNCLCQAQEVICTGKQLTEYPLDIPLNTRRLFLNENRITSLPAMHLGLLSDLVYLDCQNNRIREVMDYTFIGVFKLIYLDLSSNNLTSISPFTFSVLSNLVQLNIANNPHLLSLHKFTFANTTSLRYLDLRNTGLQTLDSAALYHLTTLETLFLSGNPWKCNCSFLDFAIFLIVFHMDPSDDLNATCVEPTELTGWPITRVGNPLRYMCITHLDHKDYIFLLLIGFCIFAAGTVAAWLTGVCAVLYQNTRHKSSEEDEDEAGTRVEVSRRIFQTQTSSVQEFPQLI"}, "B3": {"name": "BK channel γ2 subunit (LRRC52): N148Q/N211Q (protein)", "parent chain": "B2 parent chain"}, "B4": {"name": "BK channel γ2 subunit (LRRC52): N211Q (protein)", "parent chain": "B2 parent chain"}, "B5": {"name": "BK channel γ2 subunit (LRRC52): N112Q/N211Q (protein)", "parent chain": "B2 parent chain"}, "B6": {"name": "BK channel γ2 subunit (LRRC52): N112Q/N148Q (protein)", "parent chain": "B2 parent chain"}, "B7": {"name": "BK channel γ2 subunit (LRRC52): tunicamycin (protein)", "parent chain": "B2 parent chain"}, "B8": {"name": "BK channel γ2 subunit (LRRC52): N112Q (protein)", "parent chain": "B2 parent chain"}, "B9": {"name": "BK channel γ2 subunit (LRRC52): triple-site mutant (N112Q/N148Q/N211Q) (protein)", "parent chain": "B2 parent chain"}, "B10": {"name": "BK channel γ1 subunit (LRRC26): tunicamycin (protein)", "parent chain": "MRGPSWSRPRPLLLLLLLLSPWPVWAQVSATASPSGSLGAPDCPEVCTCVPGGLASCSALSLPAVPPGLSLRLRALLLDHNRVRALPPGAFAGAGALQRLDLRENGLHSVHVRAFWGLGALQLLDLSANQLEALAPGTFAPLRALRNLSLAGNRLARLEPAALGALPLLRSLSLQDNELAALAPGLLGRLPALDALHLRGNPWGCGCALRPLCAWLRRHPLPASEAETVLCVWPGRLTLSPLTAFSDAAFSHCAQPLALRDLAVVYTLGPASFLVSLASCLALGSGLTACRARRRRLRTAALRPPRPPDPNPDPDPHGCASPADPGSPAAAAQA"}, "B11": {"name": "BK channel γ1 subunit (LRRC26): N147Q (protein)", "parent chain": "B10 parent chain"}}, "key": {"[1]": {"assay": "cell surface immunoprecipitation, N-terminal FLAG", "conditions": "glycan lost, untreated cells; for localisation_or_trafficking, other: percent decrease: control: γ1 WT"}, "[2]": {"assay": "inside-out patch clamp, G-V, 0 Ca2+", "conditions": "glycan lost; control: γ3 WT, untreated cells"}, "[3]": {"assay": "inside-out patch clamp, G-V Boltzmann fits, 0 Ca2+", "conditions": "glycan lost, untreated cells; for other: BK channel gating modulation: control: γ2 WT"}, "[4]": {"assay": "whole-cell lysate anti-FLAG immunoblot", "conditions": "glycan lost, untreated cells"}}, "data": [{"protein": "B1", "values": [{"measurement": "localisation_or_trafficking", "setting": "[1]; control: γ3 WT", "value": "abolishes"}, {"measurement": "other: BK channel gating modulation, other: V1/2", "setting": "[2]", "value": "abolishes, 160.1 ± 7.4 vs 115.0 ± 1.7"}]}, {"protein": "B2", "values": [{"measurement": "other: BK channel gating modulation", "setting": "[3]", "value": "decreases"}]}, {"protein": "B3", "values": [{"measurement": "other: BK channel gating modulation", "setting": "[3]", "value": "decreases"}]}, {"protein": "B4", "values": [{"measurement": "other: BK channel gating modulation", "setting": "[3]", "value": "decreases"}]}, {"protein": "B5", "values": [{"measurement": "other: BK channel gating modulation", "setting": "[3]", "value": "decreases"}]}, {"protein": "B6", "values": [{"measurement": "other: BK channel gating modulation", "setting": "[3]", "value": "decreases"}]}, {"protein": "B7", "values": [{"measurement": "other: BK channel gating modulation", "setting": "[3]", "value": "abolishes"}, {"measurement": "expression_or_secretion", "setting": "[4]; control: γ2 WT", "value": "decreases"}]}, {"protein": "B8", "values": [{"measurement": "other: BK channel gating modulation", "setting": "[3]", "value": "decreases"}]}, {"protein": "B9", "values": [{"measurement": "expression_or_secretion", "setting": "[4]; control: γ2 WT", "value": "decreases"}]}, {"protein": "B10", "values": [{"measurement": "other: BK channel gating modulation, other: fraction of channels not modulated", "setting": "[3]; control: γ1 WT", "value": "decreases"}, {"measurement": "localisation_or_trafficking, other: percent decrease", "setting": "[1]", "value": "decreases"}, {"measurement": "expression_or_secretion", "setting": "[4]; control: γ1 WT", "value": "no change"}]}, {"protein": "B11", "values": [{"measurement": "localisation_or_trafficking, other: percent decrease", "setting": "[1]", "value": "decreases"}, {"measurement": "expression_or_secretion", "setting": "[4]; control: γ1 WT", "value": "no change"}]}]}
